Results taken from PMC5865148 (Nature Communications, 2018).
One block for each binder: values may come before it.

Experiments:
Conditions in all cases: both partners purified
[1] = biological target: T1, soluble human BAFF (aa 134-285) N242A (human, UniProt Q9Y275 134-285, N242A); assay: SPR; about 1000 RU of belimumab Fab immobilised on a CM-5 chip by amine coupling; BAFF wild type or mutant flowed at 2 to 250 nM; 20 mM sodium citrate pH 5.6, 200 mM NaCl; 25 °C; BIAcore T100; sensorgrams locally fitted; in duplicate
T1 construct: also called BAFF N242A; source: E. coli BL21 (DE3), purified as described for wild-type BAFF; not shown: His6, N-terminal, cleaved

[2] = biological target: T2, soluble human BAFF (aa 134-285) R265A (human, UniProt Q9Y275 134-285, R265A); assay: as above
T2 construct: also called BAFF R265A; source: E. coli BL21 (DE3), purified as described for wild-type BAFF; not shown: His6, N-terminal, cleaved

[3] = biological target: T3, soluble human BAFF (aa 134-285) E266A (human, UniProt Q9Y275 134-285, E266A); assay: as above
T3 construct: also called BAFF E266A; source: E. coli BL21 (DE3), purified as described for wild-type BAFF; not shown: His6, N-terminal, cleaved

[4] = biological target: T4, soluble human BAFF (aa 134-285) Y163A (human, UniProt Q9Y275 134-285, Y163A); assay: as above
T4 construct: also called BAFF Y163A; source: E. coli BL21 (DE3), purified as described for wild-type BAFF; not shown: His6, N-terminal, cleaved

[5] = biological target: T5, soluble human BAFF (aa 134-285) Y206A (human, UniProt Q9Y275 134-285, Y206A); assay: as above
T5 construct: also called BAFF Y206A; source: E. coli BL21 (DE3), purified as described for wild-type BAFF; not shown: His6, N-terminal, cleaved

[6] = biological target: T6, soluble human BAFF (aa 134-285) D222A (human, UniProt Q9Y275 134-285, D222A); assay: as above
T6 construct: also called BAFF D222A; source: E. coli BL21 (DE3), purified as described for wild-type BAFF; not shown: His6, N-terminal, cleaved

[7] = biological target: T7, soluble human BAFF (aa 134-285) L224A (human, UniProt Q9Y275 134-285, L224A); assay: as above
T7 construct: also called BAFF L224A; source: E. coli BL21 (DE3), purified as described for wild-type BAFF; not shown: His6, N-terminal, cleaved

[8] = biological target: T8, soluble human BAFF (aa 134-285) R231A (human, UniProt Q9Y275 134-285, R231A); assay: as above
T8 construct: also called BAFF R231A; source: E. coli BL21 (DE3), purified as described for wild-type BAFF; not shown: His6, N-terminal, cleaved

[9] = biological target: T9, soluble human BAFF (aa 134-285) I233A (human, UniProt Q9Y275 134-285, I233A); assay: as above
T9 construct: also called BAFF I233A; source: E. coli BL21 (DE3), purified as described for wild-type BAFF; not shown: His6, N-terminal, cleaved

[10] = biological target: T10, soluble human BAFF (aa 134-285) L240A (human, UniProt Q9Y275 134-285, L240A); assay: as above
T10 construct: also called BAFF L240A; source: E. coli BL21 (DE3), purified as described for wild-type BAFF; not shown: His6, N-terminal, cleaved

[11] = biological target: T11, soluble form of human BAFF (aa 134–285) (human, UniProt Q9Y275); assay: SEC; analytical gel filtration, Superdex 200 Increase 10/300 GL, 20 mM HEPES pH 7.0, 200 mM NaCl; BAFF alone, Fab alone, and BAFF incubated 1 h with an excess of Fab
T11 construct: Cloned in pET-28a; On gel filtration it runs as trimer and as 60-mer (20 trimers); the trimer fractions were collected; also called BLyS; source: E. coli BL21 (DE3), purified (HisTrap, thrombin cleavage, gel filtration; trimer fractions collected); not shown: His6, N-terminal, cleaved

Kd [1]: 1.22 nM | koff [1]: 0.000167 s⁻¹ | kon [1]: 137000 M⁻¹ s⁻¹ | Kd [2]: 3.79 nM | koff [2]: 5.59e-05 s⁻¹ | kon [2]: 14800 M⁻¹ s⁻¹ | Kd [3]: 2.34 nM | koff [3]: 0.000245 s⁻¹ | kon [3]: 105000 M⁻¹ s⁻¹ | Kd [4]: 1.45 nM | koff [4]: 0.000137 s⁻¹ | kon [4]: 94400 M⁻¹ s⁻¹ | Kd [5]: 14.1 nM | koff [5]: 0.00783 s⁻¹ | kon [5]: 556000 M⁻¹ s⁻¹ | Kd [6]: 4.34 nM | koff [6]: 0.000357 s⁻¹ | kon [6]: 82200 M⁻¹ s⁻¹ | Kd [7]: 7.77 nM | koff [7]: 0.00119 s⁻¹ | kon [7]: 153000 M⁻¹ s⁻¹ | Kd [8]: 2.85 nM | koff [8]: 0.000128 s⁻¹ | kon [8]: 45000 M⁻¹ s⁻¹ | Kd [9]: 2.64 nM | koff [9]: 0.000328 s⁻¹ | kon [9]: 124000 M⁻¹ s⁻¹ | Kd [10]: 1.45 nM | koff [10]: 0.000145 s⁻¹ | kon [10]: 101000 M⁻¹ s⁻¹
B1: belimumab Fab (Fab, V domains shown)
VH: QVQLQQSGAEVKKPGSSVRVSCKASGGTFNNNAINWVRQAPGQGLEWMGGIIPMFGTAKYSQNFQGRVAITADESTGTASMELSSLRSEDTAVYYCARSRDLLLFPHHALSPWGRGTMVTVSS
VL: SSELTQDPAVSVALGQTVRVTCQGDSLRSYYASWYQQKPGQAPVLVIYGKNNRPSGIPDRFSGSSSGNTASLTITGAQAEDEADYYCSSRDSSGNHWVFGGGTELTVLG
notes: followed by HHHHHH (the tag); Fab of a fully human IgG1 lambda antibody; also called belimumab Fab fragment; Benlysta Fab; source: E. coli Top10F, periplasmic expression, purified (HisTrap, gel filtration)

stoichiometry N [11]: 1 BAFF protomer per Fab (printed 3:3)
B2: belimumab Fab (Fab, V domains shown)
VH: B1 VH
VL: SSELTQDPAVSVALGQTVRVTCQGDSLRSYYASWYQQKPGQAPVLVIYGKNNRPSGIPDRFSGSSSGNTASLTITGAQAEDEADYYCSSRDSSGNHWVFGGGTELTVL
notes: heavy chain of the Fab of belimumab (fully human IgG1 lambda); in the deposited structures PDB 5Y9J and 5Y9K; lambda light chain of belimumab; also called Benlysta; belimumab Fab fragment; source: E. coli Top10F, periplasmic expression, purified (HisTrap, gel filtration)
